First the molecules themselves.
B5: Trypanosoma brucei brucei adenine phosphoribosyltransferase 1 (APRT1, Tb927.7.1780) (enzyme, UniProt Q57V32 1-235, looked up)
chain: MSLVEVLPNYFTLSKDSPLRKKFEKVYKWYSPAFSPHDVPRFAEVGNITENPEVMRGIRDFFVDRYKNLQQPITHILGFDSRGFLLGPMIAVELNVPFVLIRKANKIAGVIIKSEPYTKEYAAESEECMTVRFGSFDKNSRVVLIDDVIATGGTMLAGVQLVDACGATLVEVAGILGLTFLKGTQPAHTFAGGRYSNVPFVTLVDETVLSDENCGDPLHHKGSRIISCAEAKKLI
notes: APRT1 of Trypanosoma brucei brucei, Tb927.7.1780, UniProt Q57V32; the ORF, codon optimised for P. pastoris, cloned into a pPICZ vector; tags were removed with TEV protease (tag-less APRT1); also called TbbAPRT1; source: Pichia pastoris strain smPP, purified (Ni-NTA, TEV cleavage, second Ni-NTA)

For one series, the target named is T1, APRT1 (TbbAPRT1) (Trypanosoma brucei, UniProt Q57V32).
T1 construct: gene Tb07.43M14.180; full-length ORF, codon optimized, expressed in Pichia pastoris; His6/mCherry tag removed with TEV protease; homodimer
T1 sequence (Q57V32 1-235): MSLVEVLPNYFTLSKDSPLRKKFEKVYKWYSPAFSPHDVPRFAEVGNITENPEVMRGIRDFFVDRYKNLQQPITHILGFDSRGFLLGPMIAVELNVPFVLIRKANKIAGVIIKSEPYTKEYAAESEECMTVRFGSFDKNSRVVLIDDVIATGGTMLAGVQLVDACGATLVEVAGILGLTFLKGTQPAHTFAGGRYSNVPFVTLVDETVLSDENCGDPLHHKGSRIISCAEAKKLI
Put plainly: coupled myokinase/pyruvate kinase/lactate dehydrogenase assay, NADH at […] nm. The format is biochemical. Conditions: read-out: Apparent inhibition parameters^b.

Substrate in series [1]: Nc1ncnc2nc[nH]c12
The experiment in a line: purified protein. In kind it is biochemical, Trypanosoma brucei. Conditions: 100 mM HEPES pH 7.8, 25 mM MgCl2, room temperature.

Series [2] concerns the target B5. Put plainly: cell-based or functional assay.
Series [3] concerns the molecule itself. Put plainly: SEC; Superdex 200 Increase 10/300 GL; 200 uL of APRT1 at 13.8 mg mL^-1 or APRT2 at 10.8 mg mL^-1; 50 mM HEPES pH 7.8, 300 mM NaCl, 50 mM L-arginine, 50 mM L-glutamate; column calibrated with standards of 1,350 to 670,000 Da.
Series [4] deals with the molecule itself. Put plainly: cross-linking; dimethyl suberimidate (DMS) 8.7 mM, 0.2 M triethanolamine pH 8.5, purified APRT at 17.8, 35, 69 or 140 ug mL^-1, RT, 5-8 hours; 12% SDS-PAGE, Coomassie Blue.
Substrate in series [5]: O=P(O)(O)OC[C@H]1O[C@H](OP(=O)(O)OP(=O)(O)O)[C@H](O)[C@@H]1O
Put plainly: purified protein. Conditions: varied PRPP (10-250 μM) at fixed adenine 1-20 μM, 100 mM HEPES pH 7.8, 25 mM MgCl2, room temperature. The format is biochemical, Trypanosoma brucei.

The mark [6] stands for this setting: kinetic dissociation constant from free enzyme, varied adenine (1.5-50 μM) at fixed PRPP 25-150 μM.

Consider 6 molecules from PMC8836349, “Characterization of adenine phosphoribosyltransferase (APRT) activity in Trypanosoma brucei brucei: Only one of the two isoforms is kinetically active” (PLoS Neglected Tropical Diseases, 2022).

With `Nc1ncnc2cc[nH]c12` [9-deazaadenine], the Ki on APRT1 (TbbAPRT1) was 156 ± 21 µM.

B1: APRT2 (Trypanosoma brucei brucei TREU927) (protein)
chain: MSQYDAILTERHPHHFTLADTHPLAKELHANIFGESDLTHANCAHVYDISSLTEKPALFRKVIEFLKCRYETMGDTGPTHIIGVESRGYIIGAPLAVALGIPFVTARVTKRFPSSFVPEGDDLKYLPMSRSIRNDSIPPRARVLIVDDFIGTGSTMLAALRLADIVAAQVVEVLTVCDVASLGGIKIIRESDDEMFKETPIFTLIHFKLSPREAEEQLEFVNSYITRSRL
notes: full-length ORF, codon optimized, expressed in Pichia pastoris; N- or C-terminal His6/mCherry tag removed with TEV protease; weak dimer
On to B1, for which, in “purified protein [1]” (adenine 50-500 μM, 1 mM PRPP), the Km stood at 253 ± 4 µM, the kcat worked out at 0.003 ± 0.0002 s⁻¹ and the kcat/Km amounted to 12 ± 0.8 M⁻¹ s⁻¹.

B2: APRT2 (Trypanosoma brucei brucei putative adenine phosphoribosyltransferase 2, Tb927.7.1790), expressed in P. pastoris, vector not told (natural protein, UniProt Q57V31 1-230, looked up)
chain: MSQYDAILTERHPHHFTLADTHPLAKELHANIFGESDLTHANCAHVYDISSLTEKPALFRKVIEFLKCRYETMGDTGPTHIIGVESRGYIIGAPLAVALGIPFVTARVTKRFPSSFVPEGDDLKYLPMSRSIRNDSIPPRARVLIVDDFIGTGSTMLAALRLADIVAAQVVEVLTVCDVASLGGIKIIRESDDEMFKETPIFTLIHFKLSPREAEEQLEFVNSYITRSRL
notes: APRT2 of Trypanosoma brucei brucei, Tb927.7.1790, UniProt Q57V31; the ORF, codon optimised for P. pastoris, cloned into a pPICZ vector; tags were removed with TEV protease; also called TbbAPRT2; source: Pichia pastoris strain smPP, purified (Ni-NTA, TEV cleavage, second Ni-NTA)
For B2, the “fold decrease in AMP formation (APRT activity) of an equimolar mixture pre-incubated 4 hours on ice (100 nM APRT1: 100 nM APRT2) against 200 nM APRT1 alone and 100 nM APRT1 alone” value in series [2] turned out to be 2 fold. Besides, the “stoichiometry N” value in series [3] was 2.

B3: APRT2-Ctag (Trypanosoma brucei brucei putative adenine phosphoribosyltransferase 2, Tb927.7.1790, expressed from pPICZ-Ctag) (natural protein, UniProt Q57V31 1-230, looked up)
chain: MSQYDAILTERHPHHFTLADTHPLAKELHANIFGESDLTHANCAHVYDISSLTEKPALFRKVIEFLKCRYETMGDTGPTHIIGVESRGYIIGAPLAVALGIPFVTARVTKRFPSSFVPEGDDLKYLPMSRSIRNDSIPPRARVLIVDDFIGTGSTMLAALRLADIVAAQVVEVLTVCDVASLGGIKIIRESDDEMFKETPIFTLIHFKLSPREAEEQLEFVNSYITRSRL
notes: APRT2 of Trypanosoma brucei brucei, Tb927.7.1790, UniProt Q57V31; the ORF, codon optimised for P. pastoris, cloned into pPICZ-Ctag; Tags removed with TEV protease; measured native-MS mass 26,637 Da (theoretical 26,647 Da), so residues of the TEV site are likely left at the C-terminus; also called TbbAPRT2; source: Pichia pastoris strain smPP, purified (Ni-NTA, TEV cleavage, second Ni-NTA); not …
As for B3, the “stoichiometry N” value in series [4] is 2.

B4: APRT2-Ntag (Trypanosoma brucei brucei putative adenine phosphoribosyltransferase 2, Tb927.7.1790, expressed from pPICZ-Ntag) (natural protein, UniProt Q57V31 1-230, looked up)
chain: MSQYDAILTERHPHHFTLADTHPLAKELHANIFGESDLTHANCAHVYDISSLTEKPALFRKVIEFLKCRYETMGDTGPTHIIGVESRGYIIGAPLAVALGIPFVTARVTKRFPSSFVPEGDDLKYLPMSRSIRNDSIPPRARVLIVDDFIGTGSTMLAALRLADIVAAQVVEVLTVCDVASLGGIKIIRESDDEMFKETPIFTLIHFKLSPREAEEQLEFVNSYITRSRL
notes: APRT2 of Trypanosoma brucei brucei, Tb927.7.1790, UniProt Q57V31; the ORF, codon optimised for P. pastoris, cloned into pPICZ-Ntag; Tags removed with TEV protease; measured native-MS mass 25,860 Da (theoretical 25,853 Da); also called TbbAPRT2; source: Pichia pastoris strain smPP, purified (Ni-NTA, TEV cleavage, second Ni-NTA); not shown: His6, N-terminal, cleaved; mCherry, N-terminal, cleaved
B4: in series [4], the “stoichiometry N” value was found to be 2.

In the case of B5, in “purified protein [1]” (setting [6]), the Km is 2.2 ± 0.7 µM and the kcat was found to be 0.62 ± 0.02 s⁻¹. Besides, in the series “purified protein [5]”, the Michaelis-Menten constant (Km) was determined as 68 ± 11 µM, the kcat was 0.61 ± 0.04 s⁻¹ and the kcat/Km worked out at 9000 ± 1600 M⁻¹ s⁻¹. The “stoichiometry N” value in series [4] worked out at 2.
